system: Escherichia coli TOP10; test: shrunken log2 fold change of peptide-encoding DNA abundance (4.5 h post-induction vs induction); higher = less antimicrobial activity (less host growth inhibition); conditions: time post-induction: 4.5 h; library: site-saturation at positions 5, 18, 19, 20
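Note: peptides expressed intracellularly from a pBAD plasmid library in pooled LB shake-flask culture, induced with 0.3% L-arabinose, DNA abundance read by NGS, three biological replicates, DESeq2 with apeglm shrinkage.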

Row | Sequence | shrunken log2 fold change
1 | RRIRNRPPRLPRPRPRPCAYPRP | -0.139
2 | RRIRNRPPRLPRPRPRPCCHPRP | -0.00931
3 | RRIRNRPPRLPRPRPRPCCNPRP | -0.432
4 | RRIRNRPPRLPRPRPRPCDPPRP | -0.114
5 | RRIRNRPPRLPRPRPRPCFAPRP | 0.0964
6 | RRIRNRPPRLPRPRPRPCFTPRP | -0.733
7 | RRIRNRPPRLPRPRPRPCGEPRP | 0.0369
8 | RRIRNRPPRLPRPRPRPCGRPRP | -0.0266
9 | RRIRNRPPRLPRPRPRPCGTPRP | -0.139
10 | RRIRNRPPRLPRPRPRPCGYPRP | 0.019
11 | RRIRNRPPRLPRPRPRPCHNPRP | -0.818
12 | RRIRNRPPRLPRPRPRPCIAPRP | -0.878
13 | RRIRNRPPRLPRPRPRPCLDPRP | -0.0122
14 | RRIRNRPPRLPRPRPRPCPEPRP | 0.113
15 | RRIRNRPPRLPRPRPRPCPRPRP | -0.0673
16 | RRIRNRPPRLPRPRPRPCPSPRP | -0.0371
17 | RRIRNRPPRLPRPRPRPCRAPRP | -0.0439
18 | RRIRNRPPRLPRPRPRPCRHPRP | -0.149
19 | RRIRNRPPRLPRPRPRPCVMPRP | 0.0192
20 | RRIRNRPPRLPRPRPRPCVNPRP | -0.282
21 | RRIRNRPPRLPRPRPRPCVTPRP | -0.0849
22 | RRIRNRPPRLPRPRPRPCWHPRP | -0.0656
23 | RRIRNRPPRLPRPRPRPCWIPRP | -0.00906
24 | RRIRNRPPRLPRPRPRPCWYPRP | -0.0865
25 | RRIRNRPPRLPRPRPRPCYHPRP | -0.0967

Row | Sequence | shrunken log2 fold change
26 | RRIRNRPPRLPRPRPRPCYMPRP | 0.0787
27 | RRIRNRPPRLPRPRPRPDAPPRP | 0.185
28 | RRIRNRPPRLPRPRPRPDCEPRP | 0.0108
29 | RRIRNRPPRLPRPRPRPDCGPRP | 0.0246
30 | RRIRNRPPRLPRPRPRPDCHPRP | 0.081
31 | RRIRNRPPRLPRPRPRPDDCPRP | -0.108
32 | RRIRNRPPRLPRPRPRPDDWPRP | 0.221
33 | RRIRNRPPRLPRPRPRPDEEPRP | 0.509
34 | RRIRNRPPRLPRPRPRPDEKPRP | -0.133
35 | RRIRNRPPRLPRPRPRPDETPRP | -0.00208
36 | RRIRNRPPRLPRPRPRPDFTPRP | 0.0959
37 | RRIRNRPPRLPRPRPRPDGEPRP | -0.00776
38 | RRIRNRPPRLPRPRPRPDHRPRP | -0.0124
39 | RRIRNRPPRLPRPRPRPDIFPRP | -0.172
40 | RRIRNRPPRLPRPRPRPDITPRP | -0.0553
41 | RRIRNRPPRLPRPRPRPDMTPRP | -0.287
42 | RRIRNRPPRLPRPRPRPDMVPRP | 0.00433
43 | RRIRNRPPRLPRPRPRPDNMPRP | -0.104
44 | RRIRNRPPRLPRPRPRPDNNPRP | -0.187
45 | RRIRNRPPRLPRPRPRPDPDPRP | 0.0692
46 | RRIRNRPPRLPRPRPRPDPQPRP | 0.0854
47 | RRIRNRPPRLPRPRPRPDQAPRP | -0.01
48 | RRIRNRPPRLPRPRPRPDSAPRP | -0.126
49 | RRIRNRPPRLPRPRPRPDSMPRP | -0.0386
50 | RRIRNRPPRLPRPRPRPDTDPRP | 0.0251

Row | Sequence | shrunken log2 fold change
51 | RRIRNRPPRLPRPRPRPDTTPRP | -0.129
52 | RRIRNRPPRLPRPRPRPDVMPRP | -0.275
53 | RRIRNRPPRLPRPRPRPDVQPRP | -0.13
54 | RRIRNRPPRLPRPRPRPDWCPRP | 0.0226
55 | RRIRNRPPRLPRPRPRPDWIPRP | 0.0186
56 | RRIRNRPPRLPRPRPRPDWRPRP | -0.158
57 | RRIRNRPPRLPRPRPRPDYDPRP | -0.0133
58 | RRIRNRPPRLPRPRPRPDYIPRP | -0.104
59 | RRIRNRPPRLPRPRPRPECEPRP | -0.0156
60 | RRIRNRPPRLPRPRPRPECFPRP | 0.0864
61 | RRIRNRPPRLPRPRPRPECTPRP | 0.00282
62 | RRIRNRPPRLPRPRPRPECYPRP | -0.329
63 | RRIRNRPPRLPRPRPRPEDEPRP | -0.0168
64 | RRIRNRPPRLPRPRPRPEDRPRP | 0.0787
65 | RRIRNRPPRLPRPRPRPEEPPRP | 0.0512
66 | RRIRNRPPRLPRPRPRPEFHPRP | -0.0541
67 | RRIRNRPPRLPRPRPRPEFYPRP | -0.243
68 | RRIRNRPPRLPRPRPRPEGIPRP | 0.0204
69 | RRIRNRPPRLPRPRPRPEGSPRP | -0.0385
70 | RRIRNRPPRLPRPRPRPEGTPRP | 0.105
71 | RRIRNRPPRLPRPRPRPEHEPRP | 0.127
72 | RRIRNRPPRLPRPRPRPEHMPRP | -0.0791
73 | RRIRNRPPRLPRPRPRPEHQPRP | -0.029
74 | RRIRNRPPRLPRPRPRPEIFPRP | -0.0153
75 | RRIRNRPPRLPRPRPRPEIMPRP | 0.0538

Row | Sequence | shrunken log2 fold change
76 | RRIRNRPPRLPRPRPRPEIQPRP | -0.0724
77 | RRIRNRPPRLPRPRPRPELHPRP | 0.102
78 | RRIRNRPPRLPRPRPRPELMPRP | 0.232
79 | RRIRNRPPRLPRPRPRPEMPPRP | -0.0738
80 | RRIRNRPPRLPRPRPRPEMSPRP | -0.0389
81 | RRIRNRPPRLPRPRPRPENGPRP | -0.0225
82 | RRIRNRPPRLPRPRPRPENRPRP | -0.0205
83 | RRIRNRPPRLPRPRPRPEPKPRP | 0.0124
84 | RRIRNRPPRLPRPRPRPEPQPRP | 1
85 | RRIRNRPPRLPRPRPRPEPTPRP | 0.587
86 | RRIRNRPPRLPRPRPRPEPYPRP | 0.0346
87 | RRIRNRPPRLPRPRPRPERNPRP | -0.0623
88 | RRIRNRPPRLPRPRPRPESIPRP | -0.24
89 | RRIRNRPPRLPRPRPRPESKPRP | -0.0938
90 | RRIRNRPPRLPRPRPRPESPPRP | 0.0142
91 | RRIRNRPPRLPRPRPRPESVPRP | -0.145
92 | RRIRNRPPRLPRPRPRPETEPRP | -0.0793
93 | RRIRNRPPRLPRPRPRPEWFPRP | -0.00884
94 | RRIRNRPPRLPRPRPRPEYDPRP | -0.0369
95 | RRIRNRPPRLPRPRPRPFAGPRP | 0.0411
96 | RRIRNRPPRLPRPRPRPFAWPRP | 0.0341
97 | RRIRNRPPRLPRPRPRPFCWPRP | 0.0104
98 | RRIRNRPPRLPRPRPRPFDAPRP | -0.106
99 | RRIRNRPPRLPRPRPRPFFMPRP | 0.0606
100 | RRIRNRPPRLPRPRPRPFGNPRP | 0.0247

Row | Sequence | shrunken log2 fold change
101 | RRIRNRPPRLPRPRPRPFHLPRP | -0.147
102 | RRIRNRPPRLPRPRPRPFIEPRP | -0.412
103 | RRIRNRPPRLPRPRPRPFIMPRP | -0.889
104 | RRIRNRPPRLPRPRPRPFKCPRP | -0.0598
105 | RRIRNRPPRLPRPRPRPFKHPRP | -0.39
106 | RRIRNRPPRLPRPRPRPFKPPRP | -0.239
107 | RRIRNRPPRLPRPRPRPFLPPRP | -0.354
108 | RRIRNRPPRLPRPRPRPFMCPRP | -0.202
109 | RRIRNRPPRLPRPRPRPFMHPRP | -0.142
110 | RRIRNRPPRLPRPRPRPFMMPRP | -0.181
111 | RRIRNRPPRLPRPRPRPFQIPRP | -0.121
112 | RRIRNRPPRLPRPRPRPFQKPRP | -0.185
113 | RRIRNRPPRLPRPRPRPFQPPRP | -0.0306
114 | RRIRNRPPRLPRPRPRPFQQPRP | -0.00931
115 | RRIRNRPPRLPRPRPRPFRHPRP | -0.727
116 | RRIRNRPPRLPRPRPRPFSAPRP | -0.264
117 | RRIRNRPPRLPRPRPRPFVTPRP | -0.274
118 | RRIRNRPPRLPRPRPRPFWDPRP | -0.0775
119 | RRIRNRPPRLPRPRPRPFWMPRP | -0.112
120 | RRIRNRPPRLPRPRPRPFYFPRP | -0.718
121 | RRIRNRPPRLPRPRPRPGAEPRP | 0.374
122 | RRIRNRPPRLPRPRPRPGATPRP | 0.124
123 | RRIRNRPPRLPRPRPRPGDCPRP | 0.404
124 | RRIRNRPPRLPRPRPRPGDLPRP | 0.107
125 | RRIRNRPPRLPRPRPRPGEWPRP | 0.00667

Row | Sequence | shrunken log2 fold change
126 | RRIRNRPPRLPRPRPRPGEYPRP | 0.0536
127 | RRIRNRPPRLPRPRPRPGFLPRP | -0.105
128 | RRIRNRPPRLPRPRPRPGHDPRP | 0.0277
129 | RRIRNRPPRLPRPRPRPGHTPRP | -0.175
130 | RRIRNRPPRLPRPRPRPGIEPRP | -0.0795
131 | RRIRNRPPRLPRPRPRPGKFPRP | -0.034
132 | RRIRNRPPRLPRPRPRPGKHPRP | -0.0999
133 | RRIRNRPPRLPRPRPRPGKSPRP | -0.0101
134 | RRIRNRPPRLPRPRPRPGLWPRP | 0.737
135 | RRIRNRPPRLPRPRPRPGPAPRP | 0.627
136 | RRIRNRPPRLPRPRPRPGPQPRP | 0.0395
137 | RRIRNRPPRLPRPRPRPGQWPRP | 0.244
138 | RRIRNRPPRLPRPRPRPGRDPRP | 0.366
139 | RRIRNRPPRLPRPRPRPGRMPRP | 0.0895
140 | RRIRNRPPRLPRPRPRPGSAPRP | 0.025
141 | RRIRNRPPRLPRPRPRPGSGPRP | 0.179
142 | RRIRNRPPRLPRPRPRPGTYPRP | -0.0105
143 | RRIRNRPPRLPRPRPRPGVTPRP | 0.0223
144 | RRIRNRPPRLPRPRPRPGYFPRP | -0.541
145 | RRIRNRPPRLPRPRPRPGYYPRP | -0.851
146 | RRIRNRPPRLPRPRPRPHACPRP | 0.0169
147 | RRIRNRPPRLPRPRPRPHAMPRP | -0.316
148 | RRIRNRPPRLPRPRPRPHAVPRP | 0.00516
149 | RRIRNRPPRLPRPRPRPHCNPRP | -0.196
150 | RRIRNRPPRLPRPRPRPHCYPRP | 0.0691
